# Data published in the supplement of paper PMC9732359.
# ± gives the uncertainty stated by the source.
# Experiment: protein stability index of a GFP-peptide fusion (yeast GPS) (PSI 1-4); higher = more stable; sorted into four equal gates, so the index is relative within each strain
# Method in brief: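 Plasmids in a pooled yeast library fused tiled 17-residue yeast protein peptides downstream of GFP and also expressed Cherry. Mid-log cultures grown without leucine were sorted into four equal gates by GFP/Cherry fluorescence ratio. Each gate's plasmids were PCR-amplified and Illumina-sequenced, and reads were matched to strains by barcodes. The protein stability index is derived by multiplying each gate's read frequency by its gate number and summing the results.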
Sequence,protein stability index (doa10∆),protein stability index (pdr5∆),protein stability index (san1∆),protein stability index (ubr1∆)
LNEIELDNLKLKELRID [GRR1],3.28 ± 0.097,3.09 ± 0.11,3.18 ± 0.054,2.85 ± 0.092
LPLDSQDDEYVKDWLYD [PRP8],3.44 ± 0.15,3.39 ± 0.088,3.35 ± 0.099,3.1 ± 0.053
IDTDLFGAPNNPNSTAI [YGL172W/NUP49],2.8 ± 0.075,2.78 ± 0.063,2.91 ± 0.053,2.59 ± 0.053
KVTCSSNSSSSPPIIDL [MED1],2.53 ± 0.044,2.76 ± 0.044,2.87 ± 0.032,2.74 ± 0.033
DLTNNPQDDDSQSKMMS [MTR3],3.17 ± 0.084,3.39 ± 0.073,3.09 ± 0.074,3.31 ± 0.055
VKRIQSVPLVIGQFLEP [RPT3],1.58 ± 0.064,1.6 ± 0.063,2.38 ± 0.11,3 ± 0.094
QYGYSGSSAGMNGRSLT [SNF6],3.14 ± 0.07,3.11 ± 0.061,3.17 ± 0.046,3.1 ± 0.042
RHQQLLRSRLQQQQQQQ [SNF5],2.47 ± 0.078,2.54 ± 0.078,2.4 ± 0.12,2.67 ± 0.072
RFAPDNQVTDSSQLNKL [SIR3],2.9 ± 0.096,3.1 ± 0.11,2.98 ± 0.12,3.04 ± 0.14
NVESAGAMTPEEIFFKS [RPC40],3.04 ± 0.074,3.31 ± 0.085,3.17 ± 0.054,3.27 ± 0.045
RIFISNVSENQPWQMDT [SNF12],2.98 ± 0.052,3.17 ± 0.072,3.09 ± 0.04,3.11 ± 0.054
PSLNNKISDDELERILK [RPB4],3.09 ± 0.096,2.9 ± 0.098,3.06 ± 0.09,3.21 ± 0.07
GALHFVQQSEKLRNEVE [YIL149C/MLP2],3.17 ± 0.14,3.16 ± 0.22,–,3.16 ± 0.12
SKVQFDAKTSYPNEVLK [REC8],2.77 ± 0.05,3.08 ± 0.072,3.06 ± 0.059,3.04 ± 0.067
REVGTKFTTVLAKILAR [ECM29],1.39 ± 0.086,1.52 ± 0.06,1.88 ± 0.097,1.44 ± 0.05
EKFDLERVTALKNCKIS [SMC1],3.44 ± 0.2,–,3.38 ± 0.11,–
ERQIFLEACIVRIMKAK [CDC53],1.64 ± 0.051,1.69 ± 0.048,1.48 ± 0.076,1.61 ± 0.037
IGTGEHIHDLEKFSPKS [SRP54],2.33 ± 0.067,2.43 ± 0.053,2.9 ± 0.053,2.03 ± 0.042
LTMHKIIQLILWSIHPS [SRB8],1.62 ± 0.047,1.53 ± 0.047,1.61 ± 0.088,1.53 ± 0.044
NSLTVDGNNANYIYAGY [RPN14],2.87 ± 0.088,2.55 ± 0.078,2.42 ± 0.092,2.85 ± 0.049
ALVKPETQFKLSRPYKA [CDC53],2.41 ± 0.068,2.64 ± 0.059,2.59 ± 0.059,2.34 ± 0.063
HLLIKIIRQLSELNEGN [SRB8],2.8 ± 0.097,2.77 ± 0.089,3.18 ± 0.052,1.97 ± 0.053
LDEDDVNADDDDFMHSE [RPB4],2.94 ± 0.096,2.82 ± 0.088,2.53 ± 0.12,3.07 ± 0.09
VRSGVSKSAPSKKISNT [YAR002W/NUP60],3.28 ± 0.085,3.25 ± 0.088,3.26 ± 0.049,3.38 ± 0.056
ENVLAIGIAGAHRVRDL [SKI6],1.97 ± 0.065,2.21 ± 0.059,2.1 ± 0.084,1.74 ± 0.052

Sequence,protein stability index (doa10∆),protein stability index (pdr5∆),protein stability index (san1∆),protein stability index (ubr1∆)
VLALKVEDFLERRLQTQ [RPS9A],2.42 ± 0.14,2.86 ± 0.092,2.63 ± 0.072,2.83 ± 0.076
GKLLRNYTQNIDNLESY [SIR2],3.48 ± 0.21,3.17 ± 0.27,3.09 ± 0.13,–
ECPGHFGHIDLAKPVFH [RPO21],2.69 ± 0.064,2.88 ± 0.06,2.74 ± 0.048,2.92 ± 0.052
MKATSNTLEEFEHGRTP [FAS2],2.8 ± 0.08,2.56 ± 0.16,1.38 ± 0.15,3.66 ± 0.12
YVKSLHKQISAEDLTIA [SIN4],2.82 ± 0.14,3.19 ± 0.11,2.8 ± 0.2,2.77 ± 0.085
ADPVALYLGLKRGEVVK [RPB5],1.67 ± 0.24,1.6 ± 0.15,1.32 ± 0.14,1.37 ± 0.13
LKDIEARIKEKAGVKES [RPT1],2.38 ± 0.27,3.42 ± 0.19,3.22 ± 0.11,3.31 ± 0.081
MAFNLLGLLTPEVVELC [FAS2],1.8 ± 0.085,1.56 ± 0.12,1.22 ± 0.22,2.47 ± 0.12
RVVYLKHLEDNTLLISG [RPL6A],2.63 ± 0.11,2.62 ± 0.093,1.81 ± 0.17,2.23 ± 0.059
KDLENAQVEMKSLEEQE [SMC1],3.43 ± 0.14,3.12 ± 0.1,3.37 ± 0.085,3.3 ± 0.081
GGSTTNNTTTTSTKPSF [YOR098C/NUP1],2.79 ± 0.075,3.01 ± 0.074,2.8 ± 0.072,2.75 ± 0.067
IFEAISLSDELNLDEIV [YJL039C/NUP192],2.76 ± 0.067,2.73 ± 0.064,2.72 ± 0.042,2.87 ± 0.054
AEDQILANFVAKGFYHT [SRB8],2.91 ± 0.092,3.25 ± 0.055,3.25 ± 0.12,3.05 ± 0.065
GWPKLQLGPQTPAFNTA [ECM29],1.43 ± 0.21,1.48 ± 0.16,1.42 ± 0.17,1.68 ± 0.2
KMMSFQANPTEESISKF [RPB5],3.02 ± 0.077,3.17 ± 0.076,2.4 ± 0.2,3.15 ± 0.12
ILQYSRTWYESFCGFLL [YJR042W/NUP85],2.11 ± 0.061,1.72 ± 0.049,1.39 ± 0.14,1.42 ± 0.067
LEPSGSYWGYKGAATGK [PRE10],2.37 ± 0.27,–,–,2.37 ± 0.16
EDEGEERESSGAKDAEK [RPC17],2.93 ± 0.18,3.38 ± 0.28,–,3.65 ± 0.16
RRVKQLDDITDSNTTEI [SIR4],3.27 ± 0.086,3.14 ± 0.072,2.83 ± 0.069,3 ± 0.065
NPIDIKRRFGELMDRTG [RPP1],3.08 ± 0.12,3.19 ± 0.18,2.26 ± 0.26,2.9 ± 0.059
TVLQKNSLLLDSTPEEV [YML103C/NUP188],2 ± 0.052,2.28 ± 0.063,1.38 ± 0.079,1.42 ± 0.049
LSKEVPFSYLIDETMMD [SRB5],2.03 ± 0.12,2.36 ± 0.066,2.22 ± 0.13,2.55 ± 0.048
YKLSTVVLRLYLKDNIT [GRR1],1.64 ± 0.06,1.53 ± 0.051,1.36 ± 0.081,1.68 ± 0.068
PSVIHSSVEMLLDVVKG [YDL116W/NUP84],2.56 ± 0.085,1.85 ± 0.11,2.2 ± 0.057,1.42 ± 0.038
NNSANNNAHSSDLGTVV [YMR153W/NUP53],3.03 ± 0.15,2.62 ± 0.1,2.7 ± 0.091,2.28 ± 0.044
